The DeepSol protein solubility set

Assay: soluble on expression in E. coli; label from the status in PepcDB or PDB records

Sequence	soluble on expression in E. coli
MNIDLNADLGEGCASDSELLTLVSSANIACGFHAGDAQTMLTCVREALKNGVAIGAHPSFPDRDNFGRTAMVLPPETVYAQTLYQIGALGAIVQAQGGVMRHVKPHGMLYNQAAKDPHLAQAIAKAVHDYDPSLILVGLAGSELIRAGERHRLVTRQEVFADRGYQADGSLVPRMQPGALIHDEEQALAQTLDMVQAGRVKSVTGVWTTVTAQTVCIHGDGEYALAFARRLRAAFNARNIHVIALEHHHHHH	soluble
MNIKLYYVHDPMCSWCWGYKPTIEKLKQQLPGVIQFEYVVGGLAPDTNLPMPPEMQQKLEGIWKQIETQLGTKFNYDFWKLCTPVRSTYQSCRAVIAAGFQDSYEQMLEAIQHAYYLRAMPPHEEATHLQLAKEIGLNVQQFKNDMDGTLLEGVFQDQLSLAKSLGVNSYPSLVLQINDAYFPIEVDYLSTEPTLKLIRERIIENMSAQ	soluble
MNILFAVSECVPFVKSGGLADVAGALPKELKKLGVDVRIILPNYSLIPQKLRDGCTLHKVINVPLGWRNQYCGILKGEQDGITYYLIDNEYYFKRDSLYGHYDDGERFSYFSKAVLECIPHLDFEVDVLHSHDWHTAMVNFLLREKYQDNPLYERIKTVYTIHNLQFQGVFPPEVIYDLLELGDEYFHSEQLEFYGNVNFMKGGIIASDQITAVSPTYKEEIQYEFFGEKLDGLLRKYNDKLSGIVNGIDTSVYNPETDSYIKAQYDAESLYEKSENKRALQRYFGLPEKEDTPIISMVTRLTKQKGLDLVRTVFREIMEEDVQCIILGSGDSEYEQFFEWMAYEYPEKVKVYIGFNEELAHQVYAGSDLFLMPSLFEPCGLGQLIALAYGTIPIVRETGGLNDTVHSYDEETGEGNGFSFTNFNAHDMLHTIHRAIEFYHDKPVWEQLVKQAMTEDYSWEQSALAYKELYKSLME	soluble
MNIVVLISGNGSNLQAIIDACKTNKIKGTVRAVFSNKADAFGLERARQAGIATHTLIASAFDSREAYDRALIHEIDMYAPDVVVLAGFMRILSPAFVSHYAGRLLNIHPSLLPKYPGLHTHRQALENGDEEHGTSVHFVTDELDGGPVILQAKVPVFAGDSEDDITARVQTQEHAIYPLVISWFADGRLKMHENAAWLDGQRLPPQGYAADE	soluble
MNIYAFDFDEIESQEDFYRDFSQTFGLAKDKVRDLDSLWDVLMNDVLPLPLEIEFVHLGEKTRRRFGALILLFDEAEEELEGHLRFNVRH	not soluble
MNKGRIIQVMGPVVDIQFESGQLPDIYNAITIERPQGGTLTVEAAVHLGDNVVRCVAMASTDGLVRGLEAVDTGAPISVPVGKATLGRVFNVLGEPIDEQGEVNAEERHPIHRPAPEFEELSTADEILETGIKVIDLLAPYAKGGKIGLFGGAGVGKTVLIQELINNVAQEHGGLSVFAGVGERTREGNDLYHEMKDSGVISKTSMVFGQMNEPPGARLRVALTGLTMAEYFRDREGQDVLLFIDNIFRFTQAGSEVSALLGRMPSAVGYQPTLATEMGQLQERITSTKKGSITSIQAIYVPADDYTDPAPATTFAHLDATTNLERKLAEMGIYPAVDPLASTSRILSPAVVGEEHYRVARGVQQVLQRYNDLQDIIAILGMDELSDEDKLIVARARKIQRFLSQPFHVAEQFTGMPGKYVPVKETVRGFKEILEGKHDNLPEEAFYMVGTIDEAVEKAKKL	soluble
MNKKELIDRVAKKAGAKKKDVKLILDTILETITEALAKGEKVQIVGFGSFEVRKAAARKGVNPQTRKPITIPERKVPKFKPGKALKEKVK	soluble
MNKKILVVDDEESIVTLLQYNLERSGYDVITASDGEEALKKAETEKPDLIVLDVMLPKLDGIEVCKQLRQQKLMFPILMLTAKDEEFDKVLGLELGADDYMTKPFSPREVNARVKAILRRSEIRAPSSEMKNDEMEGQIVIGDLKILPDHYEAYFKESQLELTPKEFELLLYLGRHKGRVLTRDLLLSAVWNYDFAGDTRIVDVHISHLRDKIENNTKKPIYIKTIRGLGYKLEEPKMNE	soluble
MNKKIYVGMTADIMHPGLIHIIHEATKYGDVIVGLLTDKAIAEHKRLPYLTYDQRKEVVENIKGVCEVVPQEDWSYVPNLEKLKPDYIIHGDDWKTGPLREVREQVFEVMNAQGGKVIEIPYTRGINSSSLDKDIKAIGTTPDVRLKSLRRLIQAKPVVRILEAHDGLCGLIIENLEVQKGDKREVFDGMWSSSLTDSTSKGKPDIEAVDLTTRLQDLNNILECTTKPIIFDGDTGGKIEHFVFTVRTLERHGISAVIIEDKVGLKKNSLFGTDAIQTQDSIEGFCDKIRAGKNAQVTGDFMIIARIESLIAGKPMSDALERAYAYVQAGADGIMIHSKDKSGEDIREFCRTFRKEYAHVPIVVVPTTYDHVHESELHEWGANVVIYANHLLRAAYPAMMNVARTILENERAEEVRPLCMPIKEILELIPGTK	not soluble
MNKKSSSMVNMPAPREPINQKIDTNNALVLNHNAIYEQRLAEITQSNTCDKAIVTVNPYGTAPLSLYLGVWMDEAAALEINVVDSEATTEEVRYQYDVHPGANLIPVCGMVSAVNNQITLRLASQIVGQYTVMTDALPPTDSANVSLGFPIISVSCPAQQASLMEEGLYFSTYFDRYNLAFDHNGIVRWYVSQEIPSYNFVRMDNGHFLATSQGINHCLNMYEFDIMGRVYTVYLLDNEFHHSILPIENNLAIAPSEYSNGRPDGYSTGKDGVSIINLSTGLEVAYYDMLYVMDYSRSPRPSGSAPGQDVSMDDWLHINQSYINEPNNLLICSGRHQSAIFGVNVDSGELRFIMANHEDWSDEFKQYLLTPVDDDGVPLYDLTSPGGIDAADKNFWTWGQHNIVEIPNDEPGILEFMVFDNGNYRSREDAKSLLPLDNFSRVVQFKINLNTMTVTRPYEYGKTEVGNRGYSSFVSAKHLLTNGHLVIHFGATTVDEFEHTITAQPGSSDLVDPDEGQQALGRLVLQEINKETKEVLFEAMVTSGYFKNEETNGTNYRYDISAFRVYKMPLFA	not soluble
MNKLNICIDIDGTITSPYHFLPYLNDIFNKNITEAECITHNWEELYGSGIRDVYAEFNNKYIHSYDEAKIVEGATEVISTLSKGHNLSFVTARHECLTDVTKNWLSRQGFSDIDVYLLGSDYKVEKARELSCDIFIEDNPLNSVQLADDGVKVILLDTNYNKDVKHQNIVRVSNWIDIEKIIKQGI	not soluble
MNKRIVICADGTWNRPEKDLKVDFPTNVLRLARAISPIAADGKPQQVFYDWGVGSYYDEVIGGATGRGLHKNIMDGYRYIVQNYSPGDEIYLFGFSRGAYTVRCLCGLINNCGILKRPEARLIQQAFDHYKKSSAPFAPSGDKSVEFRHEHCHESREIKFVGVWDTVGAMGIPISFLGLFEDKDEFYDTKIGRNVRVARHALAIDEHRSDFEPTIWQLRDNMDMQQVWFAGAHSNVGGSYLPDKDGSLLSDNALAWMIAEAERFNLSLEPHLTAGLEHHHHHH	not soluble
MNKTELIKAIAQDTGLTQVSVSKMLASFEKIITETVAKGDKVQLTGFLNIKPVARQARKGFNPQTQEALEIAPSVGVSVKPGESLKKAAEGLKYEDFAK	soluble
MNKTPRVGFVSLGCPKAASDSEQILTRLRAEGYEIAPSYDGADLVVVNTCGFIDSAVEESLDAIGEALNENGKVIVTGCLGAKGDVVRDVHPSVLAVTGPHATEEVMSAVHTHLPKPHDPFVDLVPDIGVRLTPKHYAYLKISEGCNHRCTFCIIPSMRGDLESRPIHDVLREAESLAKAGVKEILVISQDTSAYGVDTKYKLGFHNGRPVKTRMTELCEELGRHGIWVRLHYVYPYPHVDEVIPLMRDGKILPYLDIPFQHASQKVLKLMKRPANSDNVLARIKKWREICPELVIRSTFIVGFPGETEEDFEELLAFIREAELDRVGCFTYSPVEGATANELPNPVPEDVKEARKERFMAVQAEISARRLERRVGQTLQVLVDEIDDEGTAVCRSYADAPEIDGLVFVEDAAGMQPGEFYQVEIVDCSEHDLWGERRLEHHHHHH	soluble
MNKVKILAIVGSLRKGSYNRQLALAAKEIVKDTADFTLLDYQDVPLMNEDIEYPAPDAVKRVREEVKAADGIWFFTPEYNHFFPGVLKNLIDWLSRPVSENEPQVLAGKPAAISGISLGMSGTAIAQDHLVTLISFLDMKVMNVPRVTVPNAWQYVDDQGKLIMESIYPHLEKQAKAFVNFIQAKCL	not soluble
MNLDDKSLFLDAMEDVQPLKRATDVHWHPTRNQRAPQRIDTLQLDNFLTTGFLDIIPLSQPLEFRREGLQHGVLDKLRSGKYPQQASLNLLRQPVEECRKMVFSFIQQALADGLRNVLIIHGKGRDDKSHANIVRSYVARWLTEFDDVQAYCTALPHHGGSGACYVALRKTAQAKQENWERHAKRSR	soluble
MNLFYNPKYVGDVAFLQIEPVEGELNYNKKGNVVEITNEGNVVGYNIFEISKDITIEEKGHIKLTDELVNVFQKRISEAGFDYKLNADLSPKFVVGYVETKDKHPDADKLSVLNVNVGNDTLQIVCGAPNVEAGQKVVVAKVGAVMPSGMVIKDAELRGVASSGMICSMKELNLPNAPEEKGIMVLNDSYEIGQAFFELEHHHHHH	soluble
MNLKAMDAILEDCCDIVCSDYLPSAMIKSMCIVAERINNLNKAVSLFTSNPAKAVGIYDERGSIKENKKADLVLVDIDSEYPKVVNTIVNGKTVYKRELEHHHHHH	not soluble
MNLKDKILGVAKELFIKNGYNATTTGEIVKLSESSKGNLYYHFKTKENLFLEILNIEESKWQEQWKKEQIKCKTNREKFYLYNELSLTTEYYYPLQNAIIEFYTEYYKTNSINEKMNKLENKYIDAYHVIFKEGNLNGEWSINDVNAVSKIAANAVNGIVTFTHEQNINERIKLMNKFSQIFLNGLSKHHHHHH	soluble
MNLLFQSYLDNVGVQIVRQMRSGERFLKIWSQTVEEIVSYVTVNF	soluble
MNLPKKVRLVEVGPRDGLQNEKQPIEVADKIRLVDDLSAAGLDYIEVGSFVSPKWVPQMAGSAEVFAGIRQRPGVTYAALAPNLKGFEAALESGVKEVAVFAAASEAFSQRNINCSIKDSLERFVPVLEAARQHQVRVRGYISCVLGCPYDGDVDPRQVAWVARELQQMGCYEVSLGDTIGVGTAGATRRLIEAVASEVPRERLAGHFHDTYGQALANIYASLLEGIAVFDSSVAGLGGCPYAKGATGNVASEDVLYLLNGLEIHTGVDMHALVDAGQRICAVLGKSNGSRAAKALLAKA	soluble
MNLRSVFTVEQQRILQRYYENGMTNQSKNCFQLILQCAQETKLDFSVVRTWVGNKRRKMSSKNSESGTATTGTSLSAPDITVRNVVNIARPSSQQSSWTSANNDVIVTGIYSPASSSSRQGTNKHTDTQITEAHKIPIQKTATKNDTEFQLHIPVQRQVAHCKNASLLLGEKTIILSRQTSVLNAGNSVFNHAKKNYGNSSVQASEMTVPQKPSVCHRPCKIEPVGIQRSYKPEHTGPALHNLCGQKPTIRDPYCRTQNLEIREVFSLAVSDYPQRILGGNAPQKPSSAEGNCLSIAMETGDAEDEYAREEELASMRAQIPSYSRFYESGSSLRAENQSTTLPGPGRNMPNSQMVNIRDMSDNVLYQNRNYHLTPRTSLHTASSTMYSNTNPLRSNFSPHFASSNQLRLSQNQNNYQISGNLTVPWITGCSRKRALQDRTQFSDRDLATLKKYWDNGMTSLGSVCREKIEAVATELNVDCEIVRTWIGNRRRKYRLMGIEVPPPRGGPADFSEQPESGSLSALTPGEEAGPEVGEDNDRNDEVSICLSEGSSQEEPNEVVPNDARAHKEEDHHAVTTDNVKIEIIDDEESDMISNSEVEQVNSFLDYKNEEVKFIENELEIQKQKYFKLQTFVRSLILAMKADDKEQQQALLSDLPPELEEMDFNHASLEPDDTSFSVSSLSEKNVSESL	soluble
